Experimental findings from the domain aggregation screens of Martell et al. (2025) are described below.

The nature of this series: soluble fraction after stress (log2 fold change); higher = more stays soluble; pooled small domains, quantitative proteomics. Particulars: stress: 50 degC. The method, boiled down:
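Each library was heated to 50°C as a stress step. The libraries, made up of small protein domains, were pooled and analysed at high throughput by quantitative proteomics. The reported value is the base-two logarithm of the fold change in each protein's soluble amount after stress, taken as a measure of aggregation propensity. The higher the value, the more protein stays in solution.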
As to “HMIGIRLKELVLKNQSAWVGLRVSELDISRKTMIVMIRRGDKMLIPNGSTILRSGDVLLLYTR”, the “soluble fraction (log2)” value was -0.452.
Next, “HMIGITTANLNVRTGTDTNYTSIAILPKGTKVNILEENVKPGWYKIQFDEIYAFVSSKYIKIQS”: -1.12; “HMIGMDMQELIGRYKGDPDEMGKIELAAMSMLKLSEDMSSDHVLQKSKLRQDGLWLLKYVQE”: -0.551; “HMIHEQSLHKIRNFIGSLPESLRTAFTLREQDGLSYEEIGKITNTPIGTVRSRIYRARESILDHINQE”: -0.874.
For “HMIHIGAQEALGEFQDEEGNLTASKKEVVAALVKKSKEVSFPTSYEYEVAARMAADEYNDAGQRMA”, the “soluble fraction (log2)” value was -0.0641.
As to “HMIHKTDAINLGQRLLKSSLKEFDVSLKDIPNKTLMYILSEYKFNSLDDLYREIGLGNVIPKLVALRMAP”, the “soluble fraction (log2)” value is -0.423.
The result for “HMIHTYVETRKVGNNDGLIRVDNKYYRVPQHLVGMKVQIQIDEATISVLQGGVMVATLDKTADVFNPQA” reads -0.782; that for “HMIIDPQIRTLWTSQIIDILKSNPKRSIRSILELYPSNKESWVLIILQELIGEEKIIRDLDYLYFNK”, -2.22.
The result for “HMIIIMKMGADESQVQETIKRIKDLGFNTHLSKGENRTIIGVIGDVSSIDESDVERLRATPYIAEVVRVS” reads 0.0267; that for “HMIIIPKKDYDVSQLDNLVSWLKDRGLEVHISRGENLTVIGLIGDTSKIDIDLIRSLDVVEEVKRIQ”, -0.326; that for “HMIIVMASSKKEDVAHVVHKIEELGYKAHVIVGVERTVVAAVGDERGKERLISLEALPHVEKVFPILK”, -0.055.
For the sequence “HMIKEVEYSQFLQMTDQGEVGKVEINEQENSILFTDKAEKNIYKTGMVEDAELSMRLYEAGIPFSGQI”, the “soluble fraction (log2)” value is -0.0245.
On to “HMIKEYEVLNYVTYEYDEIKKKLEEDFGIIVLMKEAYSDETPAGIIMDQDVEQGRIFKEGATNTITFTVS”, for which the “soluble fraction (log2)” value is -0.434.
As to “HMIKLSEAEWKVMKLLWEESPKTMMQITNLLKETTGWTKHTVMTFLKRMEEKKAIHYEEGGRAKLYYP”, the “soluble fraction (log2)” value is -0.589.
Next, “HMIKVASVDGASDELAHEIREIMPLDFPVSYFDLDIKYLHKVLNDIPAVESAAIKVTVSGVLQIDISER”: 0.43.
Consider “HMILALAISSEEDDARIYATYADRLREAYPASARVFEGMVDEEHEHRRRLIDLFQRRFGDTIPLVRREHV”, for which the “soluble fraction (log2)” value is -0.61.
The result for “HMILNPADEEKMNLINFELQQRGLEINDKEMQYIFTHHSRDLNSLLNLAEKLDEISHQEKKSISINLIKKI” reads -0.0218; that for “HMILNWSEYTRSEIIELARDLSPDKYMIIDDINTYSKMKLLPSQAFIAEMFGSLRQFQKEAWGRE”, -1.88.
The result for “HMILPKFNQLLGQMGENIKLARKRRKLTAVQVSERAGIARSTLYLIEKGDASVSLGAYFNVLRVLG” reads -1.46; that for “HMIMEVDYGTFMKMTEENAIGRVQMDSTEIIFTDKENTQVYSTGIMYDPDLTQRLYDAGAVFA”, -0.986.
Turning to “HMIMGTIEKRGPFSFRIGVQVRLPDGSWEWIRDTIHVSPDLSARAARKQAEMALARLEADVYEGKRKPD”, the “soluble fraction (log2)” value was -0.878.
For the sequence “HMIMLDRILKIMDYNKFTPSEFADVLEIDRSRLSHILNGRNKPSLEIVMKILEKFPEISSDWLLFGSGNML”, the “soluble fraction (log2)” value was -1.49.
Next, “HMIMNEYEELRDRYLIGQIWKIGDLIEAKGIEGKIIQRGTNYVTFNDNNGKVHKAWLHEIKYEQ”: -0.343; “HMIMNKEIPVVADEFVEKEFGTGAVKLTPAHDPNDYESGERHGLEVVEVFDETGKMNDLVPEYEG”: 0.551.
Next, “HMIMTGSIQEKNGKYYTVLNIKDKNGKYKKKWQTTGLPVKGNKRKAEQILRRRIAEYEANQL”: -0.436.
The result for “HMIMTHSALLEKDGFDIVKVHFERPNDDGFDFLDMTLPGEIVYKSFGFSEDEILKLKRYAKNNSSLIWDF” reads -2.31; that for “HMINEDMTQSDRMELWGRLIDVVEDWLAEKGITEEDIPNEEREGVEDAAIIFGDDYDYLADRFSEVIGISR”, -1.18.
As for “HMINFKVKNVQDVGSRLDKFLVTNIPEFSRSKIQKHIKNGKVMVNGLLKKTGYKLEINDEINILNN”, the “soluble fraction (log2)” value was -0.276.
Next, “HMINLDYILELIFEKNNKTKDKTALIEEIRGVIRASVGNRAKESLIVDFINDTDLDTITDKASIIESFFEY”: -3.51; “HMINLTKVGNFISIIKLQQIWTIDELLKKVDINYDELLYLLTILSDIYSKNGEYFFDFDIDAENNKILFNN”: 0.42; “HMINVGYKFKQIRENAGLTLKQVSAMSGLSVSFISQIERGVVDPSWSSLKKISAALNIKLKDLF”: -1.78.
In the case of “HMIPDLPAIGENLYRERKRQQLSMAELAAASGISKAMLSQIEADKVNPTIATLWKIAHALHVDLESLISGG”, the “soluble fraction (log2)” value was -0.578.
The result for “HMIPDPEKVMFDGGIRLLTQAGITEGKARSILGKWKRDHETERIIAALGAAQREGAIEPVSFIERVLRN” reads -0.0153; that for “HMIPKIIDITDLNEEVREVIEEYMKRKRVEKYHIYQDSKGQIFIISGSAIIRYDSKLNNLYYL”, -0.405.
